From patent US20030027252A1 (TULARIK, published 2003)
Where no end group is shown, it is not given here.

How the values were obtained:
Human TGR342 [1] = target: T1, Human TGR342 (human, UniProt Q969V1 1-340); experiment: cell-based or functional assay
Human TGR342 [2] = target: T1, Human TGR342; experiment: [125I]-MCH binding to membranes of HEK293 cells transiently transfected with pEF6/V5-TGR342; specific binding = total minus mock-transfected membranes

T1 sequence (Q969V1 whole entry): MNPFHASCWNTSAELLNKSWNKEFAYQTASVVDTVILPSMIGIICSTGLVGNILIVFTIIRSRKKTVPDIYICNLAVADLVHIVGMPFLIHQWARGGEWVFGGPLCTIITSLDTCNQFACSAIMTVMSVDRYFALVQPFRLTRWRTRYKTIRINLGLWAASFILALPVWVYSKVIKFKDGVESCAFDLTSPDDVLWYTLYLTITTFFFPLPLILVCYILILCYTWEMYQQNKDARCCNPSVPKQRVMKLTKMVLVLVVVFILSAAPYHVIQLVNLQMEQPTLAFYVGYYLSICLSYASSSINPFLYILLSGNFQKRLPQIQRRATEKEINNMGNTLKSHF

EC50, aequorin luminescence assay (intracellular calcium mobilization), transfected HEK293 cells (Human TGR342 [1]) [nM] | Kd (Human TGR342 [2]) [nM] | Binder
2 | – | DFDMLRCMLGRVYRPCWQV (peptide, UniProt P20382 147-165, looked up, ends and bridges not checked; cysteine pairing not given here) [melanin-concentrating hormone (MCH)]
– | 9.6 | DFDMLRCMLGRVYRPCWQV (peptide, UniProt P20382 147-165, looked up, ends and bridges not checked; also: 125I label, labelled residue not given here, mature) [[^125I]-MCH]
